Reference: the Immune Epitope Database (IEDB)
pKd: −log10 of the molar value.

Assays:
HLA-A*01:01 = assay: IEDB peptide-MHC binding, purified MHC/direct/fluorescence; filed as Kd, often an IC50 or EC50 that approximates it; ≥ and ≤ were set here for values at or beyond the usual limits of such assays
HLA-A*80:01 = assay: as above
HLA-B*58:01 = assay: IEDB peptide-MHC binding, purified MHC/competitive/fluorescence; filed as Kd, often an IC50 or EC50 that approximates it; ≥ and ≤ were set here for values at or beyond the usual limits of such assays; conditions: source organism: Influenza A virus (A/Leningrad/1954/1(H1N1))
HLA-A*26:01 = assay: as above; conditions: source organism: Yersinia pestis Nepal516
HLA-B*15:42 = assay: as above; conditions: source organism: Yersinia pestis Nepal516
HLA-B*35:01 = assay: as above; conditions: source organism: Yersinia pestis Nepal516
HLA-B*45:06 = assay: as above; conditions: source organism: Yersinia pestis Nepal516
HLA-B*83:01 = assay: as above; conditions: source organism: Yersinia pestis Nepal516
HLA-C*14:02 = assay: as above; conditions: source organism: Yersinia pestis Nepal516
HLA-B*27:05 = assay: as above; conditions: source organism: Escherichia coli 536
HLA-A*02:01 = assay: IEDB peptide-MHC binding, purified MHC/direct/fluorescence; filed as Kd, often an IC50 or EC50 that approximates it; ≥ and ≤ were set here for values at or beyond the usual limits of such assays; conditions: source organism: Giardia lamblia ATCC 50803
HLA-A*02:12 = assay: as above; conditions: source organism: Giardia lamblia ATCC 50803
HLA-A*02:16 = assay: as above; conditions: source organism: Giardia lamblia ATCC 50803
HLA-A*69:01 = assay: as above; conditions: source organism: Giardia lamblia ATCC 50803
HLA-A*02:50 = assay: IEDB peptide-MHC binding, purified MHC/competitive/fluorescence; filed as Kd, often an IC50 or EC50 that approximates it; ≥ and ≤ were set here for values at or beyond the usual limits of such assays; conditions: source organism: Giardia lamblia ATCC 50803
HLA-C*03:03 = assay: IEDB peptide-MHC binding, purified MHC/direct/fluorescence; filed as Kd, often an IC50 or EC50 that approximates it; ≥ and ≤ were set here for values at or beyond the usual limits of such assays; conditions: source organism: Vibrio cholerae MAK 757
HLA-C*05:01 = assay: as above; conditions: source organism: Vibrio cholerae MAK 757
HLA-C*12:03 = assay: as above; conditions: source organism: Vibrio cholerae MAK 757
HLA-B*46:01 = assay: IEDB peptide-MHC binding, purified MHC/competitive/fluorescence; filed as Kd, often an IC50 or EC50 that approximates it; ≥ and ≤ were set here for values at or beyond the usual limits of such assays; conditions: source organism: Vibrio cholerae MAK 757
[1] = source organism: Mammarenavirus lassaense
[2] = source organism: Camelpox virus M-96

Sequence: ALTDLGLIY
- pKd (HLA-A*01:01; [1]): 7.46
- pKd (HLA-A*80:01; [1]): 8.74

Sequence: MTDLSKKGY
- pKd (HLA-A*01:01; [2]): 8.55
- pKd (HLA-A*80:01; [2]): ≤ 4.70

Sequence: VSLGAISFW
- pKd (HLA-B*58:01): ≥ 9.00

Sequence: MVLSGTLAY
- pKd (HLA-A*26:01): 6.30
- pKd (HLA-B*15:42): ≤ 5.30
- pKd (HLA-B*35:01): 8.92
- pKd (HLA-B*45:06): ≤ 5.30
- pKd (HLA-B*83:01): ≤ 5.30
- pKd (HLA-C*14:02): 6.91

Sequence: GKVERMVQY
- pKd (HLA-B*27:05): ≤ 4.70

Sequence: GMNPYHLAA
- pKd (HLA-A*02:01): 5.36
- pKd (HLA-A*02:12): 6.53
- pKd (HLA-A*02:16): 7.19
- pKd (HLA-A*69:01): ≤ 4.70
- pKd (HLA-A*02:50): 7.90

Sequence: IAAPNMIAV
- pKd (HLA-C*03:03): ≥ 9.00
- pKd (HLA-C*05:01): 5.66
- pKd (HLA-C*12:03): 8.70
- pKd (HLA-B*46:01): 6.24
